Laboratory results from US20250057881A1 (ROSWELL PARK CANCER INSTITUTE, published 2025).

Target: T1, HLA-A*02:01 (human)
T1 construct: also called HLA-A2; A2
Assay: peptide loaded on Flex-T HLA-A*02:01 monomer by UV exchange; the resulting tetramer stained TCR-transduced T cells
Excerpt: HLA-A2-binding epitope of CLDN6 between CLDN6₁₃₁₋₁₄₀ was predicted using […] database. […] (CLDN6₁₃₂₋₁₄₀) (SEQ ID NO:18) peptide was synthesized by EZBiolab with 82% purity. HLA-A2/peptide monomer was generated with Flex-T HLA-A*02:01 monomer UVX followed by tetramerization using PE-streptavidin according to the manufacturer's instruction (BioLegend). CD8-TCR-or mock-transduced cells were stained with the tetramer followed by anti-CD8 antibody.

TLIPVCWTA (Synthetic peptide, 82% purity) [CLDN6132-140 peptide]: binds.
